From US20050287144A1

Biological target: endogenous NIK of mouse embryonic fibroblast cells (mouse) (UniProt Q9WUL6)
Test: cell-based or functional assay

Sequence of endogenous NIK of mouse embryonic fibroblast cells (mouse) (Q9WUL6 whole entry): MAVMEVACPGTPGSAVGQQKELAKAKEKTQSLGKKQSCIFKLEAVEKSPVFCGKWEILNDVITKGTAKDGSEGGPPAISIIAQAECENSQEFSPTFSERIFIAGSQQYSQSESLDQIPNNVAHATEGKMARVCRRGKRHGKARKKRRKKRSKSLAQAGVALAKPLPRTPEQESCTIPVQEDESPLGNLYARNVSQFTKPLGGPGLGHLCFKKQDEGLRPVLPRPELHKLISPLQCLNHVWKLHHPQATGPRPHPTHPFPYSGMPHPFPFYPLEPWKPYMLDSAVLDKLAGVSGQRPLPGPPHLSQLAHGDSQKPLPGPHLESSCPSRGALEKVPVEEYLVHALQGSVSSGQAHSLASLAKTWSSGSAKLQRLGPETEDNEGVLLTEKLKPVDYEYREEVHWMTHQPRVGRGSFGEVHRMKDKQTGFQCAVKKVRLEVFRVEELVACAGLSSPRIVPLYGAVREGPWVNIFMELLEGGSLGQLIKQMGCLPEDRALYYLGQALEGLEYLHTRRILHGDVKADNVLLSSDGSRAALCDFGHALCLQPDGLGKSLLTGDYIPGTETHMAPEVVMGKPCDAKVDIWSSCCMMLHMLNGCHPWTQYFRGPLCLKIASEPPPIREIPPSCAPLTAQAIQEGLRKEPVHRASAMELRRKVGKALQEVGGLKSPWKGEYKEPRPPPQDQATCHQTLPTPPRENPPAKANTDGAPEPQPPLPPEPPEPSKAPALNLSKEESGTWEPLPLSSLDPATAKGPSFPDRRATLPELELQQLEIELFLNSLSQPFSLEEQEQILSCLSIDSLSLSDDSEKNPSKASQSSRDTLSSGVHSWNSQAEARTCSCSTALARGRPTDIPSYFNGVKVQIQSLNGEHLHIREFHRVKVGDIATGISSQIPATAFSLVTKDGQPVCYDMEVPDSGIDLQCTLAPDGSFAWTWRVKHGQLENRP

NF-κB activation by LTβ, luciferase reporter, mouse embryonic fibroblast cells [fold] | decrease in NF-κB activation by LTβ, luciferase reporter, mouse embryonic fibroblast cells [%] | Substance
2.5 | – | GST fusion protein with the intracellular domain of cγc (from UniProt P31785 284-369)
– | 50 | GST-41MDD fusion protein (from UniProt P31785 329-369)
